Source: paper PMC8348223, “Direct Measurement of the Affinity between tBid and Bax in a Mitochondria-Like Membrane” (International Journal of Molecular Sciences, 2021)

Biological target: the molecule itself
Test: single particle fluorescence intensity (stoichiometry) analysis of confocal images; same bilayer and images as a1; event intensity normalised by the monomer brightness measured by FCS and binned into putative monomers, dimers, etc.

B1: Bax 47C labelled with HyLite488 (Bax-HyLite488) (natural protein, human, UniProt Q07812 1-192, looked up)
chain: MDGSGEQPRGGGPTSSEQIMKTGALLLQGFIQDRAGRMGGEAPELACDPVPQDASTKKLSEALKRIGDELDSNMELQRMIAAVDTDSPREVFFRVAADMFSDGNFNWGRVVALFYFASKLVLKALATKVPELIRTIMGWTLDFLRERLLGWIQDQGGWDGLLSYFGTPTWQTVTIFVAGVLTASLTIWKKMG
modifications: HyLite488 bound by maleimide chemistry to the cysteine at position 47
notes: full-length human Bax; the two endogenous cysteines (62 and 126) are replaced with alanine, and leucine 47 is changed to cysteine; Labelling efficiency 81%; also called Bax-HiLyte488
binding result: binds
